T1: extracellular domain of human LEPR (amino acids 22-839 of P48357, Isoform B) with N-terminal myc-myc tag, … (human, UniProt P48357 22-839, GPI anchor at the C-terminus)
T1 construct: also called HEK293/Mycx2-hLepR(Ecto)-GPI anchored cells
T1 sequence: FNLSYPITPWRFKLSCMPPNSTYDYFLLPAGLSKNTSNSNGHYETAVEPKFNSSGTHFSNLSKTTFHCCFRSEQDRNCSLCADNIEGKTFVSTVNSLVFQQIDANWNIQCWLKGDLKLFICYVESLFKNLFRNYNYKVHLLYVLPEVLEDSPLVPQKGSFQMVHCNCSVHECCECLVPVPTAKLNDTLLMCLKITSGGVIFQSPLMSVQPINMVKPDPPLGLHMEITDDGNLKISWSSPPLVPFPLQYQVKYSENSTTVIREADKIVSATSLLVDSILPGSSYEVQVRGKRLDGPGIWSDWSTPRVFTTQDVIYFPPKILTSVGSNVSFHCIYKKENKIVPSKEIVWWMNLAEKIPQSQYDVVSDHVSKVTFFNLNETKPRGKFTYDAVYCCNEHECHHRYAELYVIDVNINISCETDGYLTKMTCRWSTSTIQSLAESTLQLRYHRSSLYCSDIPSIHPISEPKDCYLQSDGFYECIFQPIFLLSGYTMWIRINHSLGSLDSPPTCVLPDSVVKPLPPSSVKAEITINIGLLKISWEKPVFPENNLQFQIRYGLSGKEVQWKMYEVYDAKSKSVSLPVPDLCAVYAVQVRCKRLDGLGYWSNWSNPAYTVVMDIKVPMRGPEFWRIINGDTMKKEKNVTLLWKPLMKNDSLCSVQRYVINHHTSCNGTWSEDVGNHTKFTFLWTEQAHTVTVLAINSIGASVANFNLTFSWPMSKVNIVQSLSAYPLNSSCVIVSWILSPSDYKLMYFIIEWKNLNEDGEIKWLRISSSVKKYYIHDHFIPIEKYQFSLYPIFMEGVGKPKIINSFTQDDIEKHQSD

T2: human LEPR CRH1 (D1)-MMH (human, UniProt P48357 22-229, limits assumed)
T2 construct: domain: CRH1 (D1)
T2 sequence (looked up): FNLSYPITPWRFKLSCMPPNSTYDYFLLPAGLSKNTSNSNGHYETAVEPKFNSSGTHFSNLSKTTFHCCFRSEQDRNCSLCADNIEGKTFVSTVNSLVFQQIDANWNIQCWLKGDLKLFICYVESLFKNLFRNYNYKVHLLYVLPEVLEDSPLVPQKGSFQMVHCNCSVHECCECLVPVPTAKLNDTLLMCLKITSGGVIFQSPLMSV

T3: human LEPR Ig (D3)-MMH (human, UniProt P48357 340-427, limits assumed)
T3 construct: domain: Ig (D3)
T3 sequence (looked up): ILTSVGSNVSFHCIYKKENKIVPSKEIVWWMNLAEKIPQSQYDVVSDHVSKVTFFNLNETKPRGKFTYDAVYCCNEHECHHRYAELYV


Assays:
[1] = molecular target: mouse LEPR extracellular domain expressed with a C-terminal myc-myc-hexahistidine tag (mLEPR.mmh) (mouse, UniProt P48356 22-839); assay: SPR, captured mAb, 25C and 37C
Method: (§1) Equilibrium dissociation constants (KD values) for LEPR binding to purified anti-LEPR monoclonal antibodies were determined using a real-time surface plasmon resonance biosensor using a Biacore 4000 instrument. All binding studies were performed in 10 mM HEPES, 150 mM NaCl, 3 mM EDTA, and 0.05% v/v Surfactant Tween-20, pH 7.4 (HBS-ET) running buffer at 25° C. and 37° C. The Biacore sensor surface was first derivatized by amine coupling with a monoclonal mouse anti-human Fc antibody (GE, # BR-1008-39) to capture anti-LEPR monoclonal antibodies. […] Kinetic association (kₐ) and dissociation (kd) rate constants were determined by fitting the real-time binding sensorgrams to a 1:1 binding model with mass transport limitation using Scrubber 2.0c curve-fitting software. Binding dissociation equilibrium constants (KD) and dissociative half-lives (t½) were calculated from the kinetic rate constants as: […]

[2] = molecular target: rat LEPR extracellular domain expressed with a C-terminal myc-myc-hexahistidine tag (rLEPR.mmh) (rat, UniProt Q62959 22-839); assay: SPR, captured mAb, 25C and 37C
Method: as §1

[3] = molecular target: T1, extracellular domain of human LEPR …; assay: FACS, 10 nM Ab, HEK293/hLEPR-GPI, 1 uM Leptin
Method: For the FACS analysis, HEK293 parental cells and HEK293/hLEPR-GPI cells were dissociated and plated onto 96-well v-bottom plates at 5×10⁵ cells/well in PBS containing 2% FBS (FACS buffer). […] Cells were subsequently fixed using BD CytoFix™ (Becton Dickinson, #554655), filtered, and analyzed on a HyperCyt Flow Cytometer (Beckman Coulter). Unstained and secondary antibody alone controls were also tested for all cell lines. The results were analyzed using ForeCyt (IntelliCyt) and FlowJo version 10 software to determine the geometric means of fluorescence for viable cells. The geometric mean of fluorescence for each sample was then normalized to the geometric mean of unstained cells to obtain relative binding per condition referred to as “binding ratios”, and these binding ratios were recorded for each antibody tested.

human LEPR CRH1 (D1)-MMH = molecular target: T2, human LEPR CRH1 (D1)-MMH; assay: Luminex, myc-captured protein on beads
Method: (§2) Aliquots of microspheres with immobilized anti-myc monoclonal antibodies, prepared as described above, were added individually to 1 mL of the each of these protein supernatants. The microspheres were gently mixed, incubated for two hours at 25° C., washed twice with 1 mL of DBPS, centrifuged to remove the supernatant and finally resuspended in 1 mL of DPBS buffer. […] of anti-myc IgG coupled microspheres from individual reactions with full length human LEPR and with each of the human LEPR domain proteins were withdrawn and mixed together in 3.6 mL of PBS+20 mg/mL BSA+0.05% sodium azide (blocking buffer).
(§3) From this mixed pool, 75 μL of microspheres were plated per well on a 96 well filter plate (Millipore, Cat. No: MSBVN1250) and mixed with 25 μL of individual anti-human LEPR monoclonal antibodies (0.5 or 5 μg/mL), incubated for two hours at 25° C. and then washed twice with 200 μL of DPBS with 0.05% Tween 20 (washing buffer). […] After 30 minutes, the samples were washed twice with 200 µL of washing buffer and resuspended in 150 μL of wash buffer. The Median Fluorescence intensity (MFI) of the microspheres was measured in a Luminex Analyzer.

human LEPR Ig (D3)-MMH = molecular target: T3, human LEPR Ig (D3)-MMH; assay: Luminex, myc-captured protein on beads
Method: as §2, §3

mouse LEPR extracellular domain expressed with a C-terminal myc-myc-hexahistidine tag (mLEPR.mmh), sequence (P48356 other isoform, or with tags, fused parts or gaps): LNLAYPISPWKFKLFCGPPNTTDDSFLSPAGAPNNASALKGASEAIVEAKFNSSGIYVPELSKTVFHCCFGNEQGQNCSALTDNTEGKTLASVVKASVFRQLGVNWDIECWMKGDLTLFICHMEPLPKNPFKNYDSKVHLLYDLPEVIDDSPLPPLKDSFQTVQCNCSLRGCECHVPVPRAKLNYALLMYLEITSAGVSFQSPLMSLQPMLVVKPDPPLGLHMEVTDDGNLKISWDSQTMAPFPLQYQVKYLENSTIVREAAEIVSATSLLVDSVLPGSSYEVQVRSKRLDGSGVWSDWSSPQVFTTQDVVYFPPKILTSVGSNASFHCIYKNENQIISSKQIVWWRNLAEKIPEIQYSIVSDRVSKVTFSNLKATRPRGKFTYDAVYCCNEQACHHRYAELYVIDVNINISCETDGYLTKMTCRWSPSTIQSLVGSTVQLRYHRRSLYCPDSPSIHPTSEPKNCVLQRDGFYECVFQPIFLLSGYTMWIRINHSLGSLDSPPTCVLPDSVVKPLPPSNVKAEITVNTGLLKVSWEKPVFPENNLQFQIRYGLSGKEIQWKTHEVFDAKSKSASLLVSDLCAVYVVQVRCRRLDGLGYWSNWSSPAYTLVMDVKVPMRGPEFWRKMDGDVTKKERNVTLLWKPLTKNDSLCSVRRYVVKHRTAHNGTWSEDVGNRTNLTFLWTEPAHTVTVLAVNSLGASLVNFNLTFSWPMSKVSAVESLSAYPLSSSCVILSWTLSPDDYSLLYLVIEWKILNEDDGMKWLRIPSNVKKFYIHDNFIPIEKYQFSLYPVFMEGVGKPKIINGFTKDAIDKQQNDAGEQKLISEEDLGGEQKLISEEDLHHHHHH
rat LEPR extracellular domain expressed with a C-terminal myc-myc-hexahistidine tag (rLEPR.mmh), sequence (Q62959 other isoform, or with tags, fused parts or gaps): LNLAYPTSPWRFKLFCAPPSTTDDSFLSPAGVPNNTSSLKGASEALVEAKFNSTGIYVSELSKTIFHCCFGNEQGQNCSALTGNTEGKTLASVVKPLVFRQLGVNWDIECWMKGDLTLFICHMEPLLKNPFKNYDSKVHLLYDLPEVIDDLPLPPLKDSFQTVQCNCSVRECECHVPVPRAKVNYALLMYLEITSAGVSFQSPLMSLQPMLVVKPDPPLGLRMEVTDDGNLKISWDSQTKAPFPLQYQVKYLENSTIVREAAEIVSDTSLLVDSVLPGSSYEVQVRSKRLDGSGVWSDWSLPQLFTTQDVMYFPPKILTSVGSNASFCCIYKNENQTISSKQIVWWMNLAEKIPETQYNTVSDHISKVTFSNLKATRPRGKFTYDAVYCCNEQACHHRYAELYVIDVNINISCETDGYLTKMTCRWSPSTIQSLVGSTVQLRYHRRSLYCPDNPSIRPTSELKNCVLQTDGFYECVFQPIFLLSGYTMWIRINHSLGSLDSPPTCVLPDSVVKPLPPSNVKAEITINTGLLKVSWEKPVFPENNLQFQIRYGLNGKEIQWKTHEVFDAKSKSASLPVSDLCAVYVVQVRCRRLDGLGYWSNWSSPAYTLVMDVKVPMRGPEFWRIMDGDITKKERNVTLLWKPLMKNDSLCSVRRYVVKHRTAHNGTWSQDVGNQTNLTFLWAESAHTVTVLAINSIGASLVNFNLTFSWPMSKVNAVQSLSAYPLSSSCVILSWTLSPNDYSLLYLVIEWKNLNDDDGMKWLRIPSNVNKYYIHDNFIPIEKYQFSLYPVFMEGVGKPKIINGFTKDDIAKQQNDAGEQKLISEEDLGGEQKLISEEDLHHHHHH

Row | Binder | binding result [1] | binding result [2] | Binding Ratio (normalized to unstained) [3] | Luminex MFI (human LEPR CRH1 (D1)-MMH) | Luminex MFI (human LEPR Ig (D3)-MMH)
1 | H4H18449P2 (antibody, human IgG4, V domains shown, human IgG4 Fc) VH: EVQLVESGGGLVQPGGSLRLSCVASGFTFNKYDMHWVRQTTGKGLEWVSGIDTDGDTYYPGSVKGRFTISRENAENSLYLQMNGLRVGDTAVYYCARWPWSGFYGAFDIWGQGTMVTVSS VL: not shown | no binding (tested: 100 nM) | no binding (tested: 100 nM) | 3110 fold | 20 MFI | 24 MFI
2 | H4H18438P2 (antibody, V domains shown) VH: QVQLVESGGGVVQPGRSLRLSCAASGFSFNTYGMHWVRQAPGKGLEWVTIIWYDGSIKYYADSVKGRFTISRDNSKNTLYLQMNSLRAEDTAVYYCARGGYSGYLYFDYWGQGTLVTVSS VL: not shown | no binding (tested: 100 nM) | no binding (tested: 100 nM) | 2410 fold | 13 MFI | 30 MFI
3 | H4H16650P2 (antibody, V domains shown) VH: QVQLVESGGGVVQPGKSLRLSCVASGFTFSSDAMYWVRQAPGKGLEWVAVIYYDGNYQYYEDSVKGRFTISRDNSQNTLDLQMNSLRVDDTAVYFCARLNWDYWYLDLWGRGTLVTVSS VL: not shown | no binding (tested: 100 nM) | no binding (tested: 100 nM) | 3120 fold | 8 MFI | 10 MFI
4 | H4H18417P2 (antibody, V domains shown) VH: QVQLVESGGGVVQPGRSLRLSCAASGFTFSTYGMHWVRQAPGKGLEWVSVISYDESNKYYADSVKGRFTISRDNSKNALYLQMNSLRNEDTAVYYCARDRPFGLVTGWFDPWGQGTLVTVSS VL: not shown | no binding (tested: 100 nM) | no binding (tested: 100 nM) | 2600 fold | 10 MFI | 17 MFI
5 | H4H18445P2 (antibody, human IgG4, V domains shown, human IgG4 Fc) VH: QVQLQESGPGLVKPSQTLSLTCTVSGGSISSGGDYWSWIRQLPGKGLEWIGYIYYSGSAYYNPSLKSRGTISIDTSKNQFSLKLTSVTAADTAVYFCVKLRFLEWFLGGWFGPWGQGTLVTVSS VL: not shown | no binding (tested: 100 nM) | no binding (tested: 100 nM) | 2490 fold | 12 MFI | 19 MFI
6 | H4H16679P2 (antibody, V domains shown) VH: QVQLVESGGGVVQPGRSLRLSCTASGFTFSSYAMYWVRQAPGKGLEWVSVIYYDGSYKYYADSVKGRFTISRDNSKNTLYLQMDSLRAEDTAVYYCASYNWNYWYFDFWGRGTLVTVSS VL: not shown | no binding (tested: 100 nM) | no binding (tested: 100 nM) | 2220 fold | 12 MFI | 14 MFI

Results, then the binder that gave them:

Row | binding result [1] | binding result [2] | Binding Ratio (normalized to unstained) [3] | Luminex MFI (human LEPR CRH1 (D1)-MMH) | Luminex MFI (human LEPR Ig (D3)-MMH) | Binder
7 | no binding (tested: 100 nM) | no binding (tested: 100 nM) |  | 17 MFI | 25 MFI | H4H18446P2 (antibody, human IgG4, V domains shown, human IgG4 Fc) VH: EVQLVESGGGLVQPGGSLRLSCAASGFTFSNYGMTWVRQAPGKGLEWVSAITGGGGSTYYSNSVKGRFTISRDNSKNTVYLRMNSVRAEDTAVYYCAKYKWNFVDDWGQGTTVTVSS VL: not shown
8 | no binding (tested: 100 nM) | no binding (tested: 100 nM) |  | 9 MFI | 7 MFI | H4H17321P2 (antibody, V domains shown) VH: QVQLVESGGGVVQPGRSLRLSCEASGFSSSDNAMYWVRQAPGKGLEWVSVIYHDGSYKYYEDSVKGRFTIARDNSKNTLYLQMNSLRAEDTAVYYCARYNWNHWYFDVWGRGTLVTVSS VL: not shown
9 | no binding (tested: 100 nM) | no binding (tested: 100 nM) |  | 8 MFI | 8 MFI | H4H17319P2 (antibody, V domains shown, also called REGN4461) VH: QVQLVESGGSVVQPGRSLRLSCAASGFTFSTYAMYWVRQTPGKGLEWVAVLYSDGSNKYYIDSVKGRFTISRDTSTNTLYLQMSSLRADDSALYYCARLNWDYWYFDLWGRGTLVTVSS VL: not shown

Source: patent US20190309079A1 (Regeneron, published 2019)
